Test results reported in patent US20250242012A1.

Molecular target: soluble HRP-conjugated spike-RBD construct (HRP-RBD) of the SARS-CoV-2 neutralizing antibody ELISA a (SARS-CoV-2) (UniProt P0DTC2)

positive control reagent of the SARS-CoV-2 neutralizing antibody ELISA assay kit (Creative Diagnostics)
percent inhibition: 82.5%
